This is an account of results in US9487562B2, “Stabilized polypeptides as regulators of RAB GTPase function” (President and Fellows of Harvard College, priority 2011, dated 2016).

Data set [1] deals with RAB25 (UniProt P57735). In words: fluorescence polarization. In general terms: Fluorescence polarisation rises when a labelled molecule tumbles more slowly, as on binding a larger partner.
For data set [2], the target named is RAB11 (UniProt P62491). Kind of data set: fluorescence polarization.
The target in data set [3] is T1, RAB11 (Homo sapiens, UniProt P62491).
T1 construct: RAB11 (residues 1-175) was expressed with an N-terminal GST-tag with an internal thrombin cleavage site; GST (thrombin cleavage site between tag and RAB11) (N); made in house; host or cells: Escherichia coli BL21(DE3) pLysS
T1 sequence (P62491 1-175): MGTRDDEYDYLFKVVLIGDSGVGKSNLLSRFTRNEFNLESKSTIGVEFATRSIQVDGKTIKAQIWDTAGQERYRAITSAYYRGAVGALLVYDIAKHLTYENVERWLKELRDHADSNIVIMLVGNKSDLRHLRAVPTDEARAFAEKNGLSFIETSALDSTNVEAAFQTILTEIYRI
In words: Fluorescence polarization binding of FITC-FIP/FITC-RFP peptides to RAB11. Conditions: for binding affinity to RAB11: FITC peptide 15 nM, fluorescence polarization; for binding to RAB11: in the presence and absence of GTP, FITC peptide. Here is the method:
Fluorescence polarization (FP) was used to measure FIP peptide binding to RAB11 and RAB25 proteins. […] This indicated specificity in the binding measurement, as this subtle change would be expected to perturb binding.
(§1) RAB11/25 protein binding assays were performed by incubating FITC-FIP or FITC-RFP (stapled FIP derivatives) peptides (15 nM) with three-fold dilutions of recombinantly-expressed, purified RAB11, RAB25 or a various epitope-tagged version of either in protein-binding buffer (25 mM Tris-HCl, pH 8.0, 150 mM NaCl, 1 mM EDTA, 1 mM DTT, 10 mM MgCl2, 10 mM GTP). Dilutions and incubations were made in 384-well, black flat-bottom plates (Corning) to a total volume of 40 μL and equilibrated for 60 minutes. Polarization was measured on a Spectramax-M5 multi-label plate reader with λex=485 nm and λem=525 nm. Polarization was calculated according to the standard equation: P=(V−H)/(V+H), where P=polarization, V=vertical emission intensity and H=horizontal emission intensity. Kd values were determined by fitting data to a variable-slope sigmoidal binding curve using Prizm 4 graphing software.
(§2) RAB11 and RAB25 proteins were expressed and purified in Escherichia coli strain BL21(DE3) pLysS (Stratagene) as epitope-tagged fusion proteins in various vectors (Novagen). RAB25 (residues E7-Q180) was expressed with an N-terminal GST- and hexahistidine tag with internal thrombin and TEV cleavage sites (GST-H6-RAB25) (SEQ ID NO: 86) in a pET41-1 vector (Novagen) or with an N-terminal hexahistidine tag alone with an internal thrombin cleavage site (H6-RAB25) (SEQ ID NO: 86) in a pET28 vector (Novagen). FIP3 protein (residues 649-756) was expressed with an N-terminal GST-tag with an internal TEV cleavage site (GST-FIP3) in a pGEX6p-1 vector (Novagen). RAB11 (residues 1-175) was expressed with an N-terminal GST-tag with an internal thrombin cleavage site in a pGEX5x-1 vector (Novagen). Transformed bacteria was grown at 37° C. until an OD600=0.8 was reached, at which point the culture was induced with 0.5 mM isopropyl β-D-1-thiogalactopyranoside (IPTG). Induced cells were grown at 30° C. for 6 hours, pelleted and lysed in binding buffer (25 mM Tris-HC;, pH 8.0, 150 mM NaCl, 1 mM EDTA, 1 mM DTT, 10 mM MgCl2, 10 mM GTP) supplemented with a complete protease inhibitor tablet (Roche) by sonication on ice. The lysate was centrifuged at 14,000 rpm to clear insoluble matter prior to loading onto Ni-NTA resin (Qiagen) for hexahistdine-tagged constructs or on GST-bind agarose resin (Biorad) for GST-tagged constructs. The protein-bound bead slurry was washed 4× with ˜20 mL of buffer and retained protein was eluted with either 250 mM imidazole or 20 mM glutathione in buffer for H6-(SEQ ID NO: 86) or GST-proteins, respectively. The eluent was concentrated using a 30 kD exclusion filter and purified by size-exclusion chromatography on a Superdex-75 Column (Amersham Pharmacia Biotech). Fractions containing purified protein were pooled, concentrated and dialyzed into binding buffer or other similar buffer for specific biochemical assays.

In data set [4] the target is T2, RAB25 (Homo sapiens, UniProt P57735).
T2 construct: RAB25 (residues E7-Q180) was expressed with an N-terminal GST- and hexahistidine tag; made in house; host or cells: Escherichia coli BL21(DE3) pLysS
T2 sequence (P57735 7-180): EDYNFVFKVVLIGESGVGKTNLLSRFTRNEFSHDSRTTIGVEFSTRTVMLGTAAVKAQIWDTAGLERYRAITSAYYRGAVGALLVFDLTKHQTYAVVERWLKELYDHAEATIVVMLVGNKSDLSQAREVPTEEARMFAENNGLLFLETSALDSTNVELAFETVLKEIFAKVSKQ
Kind of data set: Fluorescence polarization binding of FITC-FIP/FITC-RFP peptides to RAB25. Particulars: FITC peptide 15 nM. Here is the method: as §1, §2

For data set [5], the target named is RAB25 (UniProt P57735). Kind of data set: ALPHAscreen competition. On the technique in general: In Alpha technology, singlet oxygen from a donor bead excites a nearby acceptor bead.
The target of another data set is GST-H6-RAB25 (UniProt P57735). In words: AlphaScreen competition.
Data set [6] in a line: Circular dichroism spectra / percent helicity. Conditions: 20° C. in water, peptides at 50 μM. Format: physicochemical. On the procedure:
We next investigated the structural stability of the RFPs by obtaining circular dichroism (CD) spectra for each peptide. All measurements were made at 20° C. in water with peptides at 50 μM. […] By comparison, stapled FIP peptides (RFPs) show helical CD spectra indicated by minima at approximately 208 and 222 nm (FIG. 11B).
A circular dichroism spectrometer (Jasco J-710, Japan) was used to determine the α-helical content of all peptides. Peptides were dissolved in water to a final concentration of 50 μM in a quartz cuvette with a path length of 1 cm. Absorbance values were taken at 1 nm intervals between 190 and 260 nm for buffer alone and for peptide solutions. The background (buffer) spectrum was subtracted from experimental spectra, which were subsequently subjected to baseline-normalization and curve-smoothing within the spectrometer software. Percent-helicity was calculated from the absorbance at 222 nm using helical models as previously reported in Chen Y H et al., Biochemistry, 13, 3350-9 (1974).
On the technique in general: Circular dichroism is the unequal absorption of left and right circularly polarised light.

Data set [7] can be described thus: Peptide thermal stability by CD at 222 nm. Type of data set: physicochemical. Particulars: CD at 222 nm over 10-90° C. Here is the method: Peptide thermal stability was measured by scanning the peptide CD at 222 nm over a temperature range (10-90° C.). A sigmoidal unfolding curve was apparent for helices of unmodified FIP peptides (FIP4) with a Tm of ˜34° C. (FIG. 12A).
Peptide thermal stability experiments were performed in a similar manner to circular dichroism experiments in Example 5. Peptide solutions were cooled to 10° C. in a temperature controlled CD-chamber and circular dichroism absorbance at 222 nm was measured at 1 degree intervals while the solution was heated to 90° C. 222 nm CD values were plotted as a function of temperature and fitted to a sigmoidal denaturation curve, with the half-maximal temperature representing the Tm.

Data set [8] concerns RAB25. Kind of data set: Fluorescence polarization binding of FITC-FIP/FITC-RFP peptides to RAB25. Here is the method:
as §1, §2

Data set [9] concerns the target T3, RAB25 (UniProt P57735 7-180).
T3 construct: range 7-180; Target of the fluorescence polarization assays; also called H6-RAB25
T3 sequence (looked up): T2 sequence (P57735 7-180)
Kind of data set: fluorescence polarization (FIG. 19B, RAB25); reference peptide not named. Here is the method:
as §1, with “MgCl_2,” for “MgCl2,”, “µL” for “μL”, “$\lambdaex$=485” for “λex=485”, “$\lambdaem$=525” for “λem=525”, “K_d” for “Kd”

Another data set deals with GST-RAB11 (UniProt P62491). Kind of data set: … titration (hook effect), approximately 10 nM GST-RAB11.

“Also recorded” adds a separate entry of the source. Bridge positions count the residues as written; N and C are the ends. Square brackets hold non-standard residues; d marks the D form. Ends that are not written are not given here. * marks the point of attachment. FITC = O=C1OC2(c3ccc(O)cc3Oc3cc(O)ccc32)c2ccc(NC(=S)*)cc21; Met(O) = CS(=O)CC[C@H](N)C(=O)O; S5 = C=CCCC[C@](C)(N)C(=O)O

The Kd is the constant that tells how readily two partners part at equilibrium. As usually defined, the IC50 is the concentration that gives 50% inhibition. A high value points to a need for much substance. What is called Tm is the temperature at which the thermal transition is half complete.

Take unmodified FIP3 peptide: the Kd was > 5 µM in the data set with RAB25 [1] and 1.7 µM with RAB11 [2].

As to “RFP31: triple-alanine mutant negative control, SEQ ID NO: 84 (RINFRLQNXIDRXAARIAETNPSILEVK; not fully specified; hydrocarbon staple)”, the “binding affinity to RAB11” value in the data set with RAB11 [3] is listed as “negligible affinity”. In addition, the “binding affinity to RAB25” value with RAB25 [4] is recorded as “negligible affinity”.

As for FIP3(726-56), in the data set with RAB25 [5], the IC50 was 14.1 µM. That is a double-digit micromolar value.

Take “FIP3 protein (from UniProt O75154 649-756)”: the IC50 in the data set with GST-H6-RAB25 was 10 µM; in the data set with RAB25 [5], 10.1 µM.

Turning to “FIP4: wild-type unmodified FIP4 peptide (EQEEINFRLRQYMDKIILAILDHNPSILEIKH) [reference compound]”, the “CD curve shape / secondary structure” value in data set [6] is reported as “partially unfolded/helical structure”. Further, the Tm in data set [7] is ~34 °C. The “binding affinity to RAB11” value with RAB11 [3] is “micromolar”. For the same molecule, the “relative affinity RAB11 versus RAB25 (selectivity)” value in the data set on RAB25 [8] is on record as “tighter binding to RAB11 than RAB25”. Besides, in the data set with RAB25 [4], the “binding affinity to RAB25” value is recorded as “micromolar”.

As for “FIP1: unmodified RAB family interacting protein 1 (class I) peptide (KKEFQVRELEDYIDNLLVRVMEETPNILRIPA) [reference compound]”, in the data set with RAB11 [3], the “binding affinity to RAB11” value is on record as “little or no binding”. The “binding affinity to RAB25” value in the data set with RAB25 [4] was “little or no binding”.

In the case of “FIP2: unmodified RAB family interacting protein 2 peptide (ERDTHIRELEDYIDNLLVRVMEETPSILRVPY) [reference compound]”, the “binding affinity to RAB11” value with RAB11 [3] is reported as “little or no binding”. Also, in the data set with RAB25 [4], the “binding affinity to RAB25” value is given as “little or no binding”.

Regarding “FITC-RFP1: unmodified FIP3 peptide conjugated to FITC ({FITC}-KQEEINFRLQDYIDRIIVAIMETNPSILEVK)”, in the data set with RAB11 [3], the “binding to RAB11” value is reported as “dose-dependent binding”.

With “RFP17: stapled FIP peptide of second design set, SEQ ID NO: 78 (FIG. 7, top to bottom) (RINFRLQN[S5]IDR[S5]IVRIFETNPSILEVK; staple 9-13; not fully specified (C-terminus))”, the Tm in data set [7] is 54 °C. Besides, the “bias for RAB11 versus RAB25” value with RAB11 [3] (ratio of affinities RAB11 vs RAB25) was “equivalent affinity”.

As to “RFP24: stapled FIP peptide containing an E-R mutation to increase overall charge, SEQ ID NO: 82 (RINFRLQN[S5]IDR[S5]IVRIFETNPSILRVK; staple 9-13; not fully specified (C-terminus))”, the “binding affinity to RAB25” value in the data set with RAB25 [4] is “retained binding affinity”.

For the molecule “FITC-RFP1-Ox: chemical derivative of FITC-RFP1 containing an oxidized methionine at a critical hydrophobic interaction site with RAB11 ({FITC}-KQEEINFRLQDYIDRIIVAI[Met(O)]ETNPSILEVK)”, in the data set with RAB11 [3], the “binding to RAB11” value is given as “decreased binding; also recorded: dose-dependent binding”.

B1: RFP31 (peptide)
peptide: RINFRLQN[S5]IDR[S5]AARIAETNPSILEVK
modifications: staple 9-13; also: N-terminal cap differs by assay: FITC or diethyleneglycol-biotin
notes: Negative control in which the I/V/M contact residues are changed to alanine; also called triple-alanine mutant negative control
For B1, the “fold decrease in binding affinity” value with RAB25 [9] was ~100 fold.

ERDTHIRELEDYIDNLLVRVMEETPSILRVPY (also: N-terminal FITC (FP) or biotin (ALPHASCREEN)) [unmodified FIP2 peptide] displayed a concentration of biotinylated peptide at maximum signal with GST-RAB11 of 40 nM.
